In paper PMC4382112:

B1: human recombinant protein C inhibitor (PCI) (natural protein)
chain: EMKKRVEDLHVGATVAPSSRRDFTFDLYRALASAAPSQSIFFSPVSISMSLAMLSLGAGSSTKMQILEGLGLNLQKSSEKELHRGFQQLLQELNQPRDGFQLSLGNALFTDLVVDLQDTFVSAMKTLYLADTFPTNFRDSAGAMKQINDYVAKQTKGKIVDLLKNLDSNAVVIMVNYIFFKAKWETSFNHKGTQEQDFYVTSETVVRVPMMSREDQYHYLLDRNLSCRVVGVPYQGNATALFILPSEGKMQQVENGLSEKTLRKWLKMFKKRQLELYLPKFSIEGSYQLEKVLPSLGISNVFTSHADLSGISNHSNIQVSEMVHKAVVEVDESGTRAAAATGTIFTFRSARLNSQRLVFNRPFLMFIVDNNILFLGKVNRP

Key:
[1] = target: soluble murine EPCR with a C-terminal myc-His tag (murine) (UniProt Q64695); experiment: ELISA; plate binding assay: soluble murine EPCR (5 μg/ml) captured by immobilised anti-myc monoclonal antibody; murine protein C variants 0 to 1200 nM in TBS-1% BSA, 5mM CaCl2, 0.6mM MgCl2, 2 hours at 37°C with shaking; detected with sheep anti-murine protein C; one-site fit, apparent KD (KD(app)); n = 3
[2] = target: human APC(5A) (human)

Sequence of UniProt Q64695 (Q64695 18-214): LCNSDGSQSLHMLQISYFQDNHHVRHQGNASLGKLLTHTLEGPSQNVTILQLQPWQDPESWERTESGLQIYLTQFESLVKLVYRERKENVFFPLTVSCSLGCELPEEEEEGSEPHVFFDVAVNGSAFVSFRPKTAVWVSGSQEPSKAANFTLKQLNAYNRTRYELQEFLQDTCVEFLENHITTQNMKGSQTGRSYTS

| Molecule | Kd [1] [nM] | inactivation of 20nM human APC variant by 200nM PCI at 37°C, residual APC activity on S-2366 over 0–20 minutes; half-life [2] [min] |
| --- | --- | --- |
| plasma-derived murine protein C (natural protein) | 94.3 |  |
| murine protein C(S360A) (natural protein) | 129 |  |
| recombinant murine wt protein C (natural protein) | 112 |  |
| B1 |  | 4 |
